Our source for the Kd values is patent publication US20230287108A1 (published 2023).

The target in the assay is T1, recombinant cynomolgus monkey (Macaca fascicularis) transferrin receptor 1 (cTfR1) (cynomolgus monkey (Macaca fascicularis), UniProt Q5RDH6 87-760 (Pongo abelii entry), limits assumed).
T1 construct: Recombinant protein; also called cyTfR1; cyno TfR1
T1 chain: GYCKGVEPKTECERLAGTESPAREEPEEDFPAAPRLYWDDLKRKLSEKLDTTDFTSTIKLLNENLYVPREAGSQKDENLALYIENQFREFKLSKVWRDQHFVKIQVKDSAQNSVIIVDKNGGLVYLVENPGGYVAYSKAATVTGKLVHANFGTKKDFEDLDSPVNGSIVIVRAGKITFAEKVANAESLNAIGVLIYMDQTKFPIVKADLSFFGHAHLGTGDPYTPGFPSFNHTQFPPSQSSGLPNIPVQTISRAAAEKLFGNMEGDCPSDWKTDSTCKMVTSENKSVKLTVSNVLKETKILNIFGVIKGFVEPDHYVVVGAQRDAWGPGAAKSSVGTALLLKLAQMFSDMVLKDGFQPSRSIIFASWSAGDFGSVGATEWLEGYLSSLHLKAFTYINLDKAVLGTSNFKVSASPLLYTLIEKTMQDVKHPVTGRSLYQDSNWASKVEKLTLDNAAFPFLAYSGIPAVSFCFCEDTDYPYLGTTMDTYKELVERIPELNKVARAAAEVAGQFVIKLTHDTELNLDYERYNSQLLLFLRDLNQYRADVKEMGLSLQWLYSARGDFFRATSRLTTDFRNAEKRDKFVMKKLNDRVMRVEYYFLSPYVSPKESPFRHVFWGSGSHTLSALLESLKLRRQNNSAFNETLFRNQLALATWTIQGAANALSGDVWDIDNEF
The assay can be described thus: Avg KD, antibody alone; table gives no method.

B1: 15G11 (control anti-TfR1 antibody) (antibody, V domains shown)
VH: QVQLQQPGAELVKPGASVKLSCKASGYTFTSYWMHWVKQRPGQGLEWIGEINPTNGRTNYIEKFKSKATLTVDKSSSTAYMQLSSLTSEDSAVYYCARGTRAYHYWGQGTSVTVSS
VL: DIQMTQSPASLSVSVGETVTITCRASDNLYSNLAWYQQKQGKSPQLLVYDATNLADGVPSRFSGSGSGTQYSLKINSLQSEDFGTYYCQHFWGTPLTFGAGTKLELK
With B1, the Kd was found to be 1 nM.
